B5: His-tagged Rrp4 of S. solfataricus (natural protein, UniProt Q9UXC4 1-249, looked up)
chain: MNMSQSQKIVLQPRSIVVPGELLAEGEFQIPWSPYILKINSKYYSTVVGLFDVKDTQFEVIPLEGSFYYPKINDIVIGLVEDVEIYGWVVDIKAPYKAYLPASNLLGRSINVGEDLRRYLDVGDYVIARIENFDRSIDPVLSVKGKDLGRVSNGIVIDIMPVKVPRVIGKNKSMYETLTSKSGCSIFVANNGRIWATCPSRFSEEILIEAIRKIENESHIKGLTDRIKQFIEEKLGERNASSGETKTNS

The target of experiment [1] is T1, Strep-Csl4-exosome (Strep-Csl4, His6-Rrp41, His6-Rrp42) (S. solfataricus, UniProt Q9UXC2 1-248; Q9UXC0 1-275; Q980J9 1-189).
T1 sequence (looked up) 1: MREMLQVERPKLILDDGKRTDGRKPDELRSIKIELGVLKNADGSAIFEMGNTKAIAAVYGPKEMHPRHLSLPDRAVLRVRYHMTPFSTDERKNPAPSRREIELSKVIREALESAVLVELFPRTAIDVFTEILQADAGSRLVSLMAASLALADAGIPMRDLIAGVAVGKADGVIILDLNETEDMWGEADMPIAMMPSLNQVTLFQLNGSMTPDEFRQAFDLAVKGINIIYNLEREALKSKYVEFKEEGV
T1 sequence (looked up) 2: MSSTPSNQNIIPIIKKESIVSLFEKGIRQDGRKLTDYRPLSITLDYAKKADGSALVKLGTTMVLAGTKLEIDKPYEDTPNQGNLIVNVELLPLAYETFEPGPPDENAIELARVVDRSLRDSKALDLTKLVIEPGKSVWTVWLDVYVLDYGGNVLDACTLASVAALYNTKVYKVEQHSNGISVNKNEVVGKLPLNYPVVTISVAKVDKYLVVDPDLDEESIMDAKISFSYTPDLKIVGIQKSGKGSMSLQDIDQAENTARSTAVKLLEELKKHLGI
T1 sequence (looked up) 3: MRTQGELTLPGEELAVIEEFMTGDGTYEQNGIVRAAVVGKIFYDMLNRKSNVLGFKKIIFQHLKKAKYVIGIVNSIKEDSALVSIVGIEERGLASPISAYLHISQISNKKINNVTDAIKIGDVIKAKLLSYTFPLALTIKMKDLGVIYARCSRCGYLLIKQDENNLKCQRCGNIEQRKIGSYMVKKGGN
In words: pull-down.

The target in experiment [2] is T2, Rrp41-Rrp42 hexamer, His-tagged subunits (S. solfataricus, UniProt Q9UXC2 1-248; Q9UXC0 1-275).
T2 sequence (looked up) 1: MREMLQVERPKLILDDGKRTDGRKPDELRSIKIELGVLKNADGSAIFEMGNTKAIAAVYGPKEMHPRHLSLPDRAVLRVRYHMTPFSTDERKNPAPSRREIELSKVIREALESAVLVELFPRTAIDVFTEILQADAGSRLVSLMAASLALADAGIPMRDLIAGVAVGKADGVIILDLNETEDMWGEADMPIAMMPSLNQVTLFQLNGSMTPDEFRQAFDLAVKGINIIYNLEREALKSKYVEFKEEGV
T2 sequence (looked up) 2: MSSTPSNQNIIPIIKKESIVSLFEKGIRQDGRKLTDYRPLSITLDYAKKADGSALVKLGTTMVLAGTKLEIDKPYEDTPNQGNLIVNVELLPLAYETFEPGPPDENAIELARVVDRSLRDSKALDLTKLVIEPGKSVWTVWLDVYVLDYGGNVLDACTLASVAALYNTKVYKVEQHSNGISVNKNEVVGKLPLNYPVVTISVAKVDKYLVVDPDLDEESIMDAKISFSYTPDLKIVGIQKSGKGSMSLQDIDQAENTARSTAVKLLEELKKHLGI
Briefly: co-IP.

The target of experiment [3] is B5. In words: pull-down.
In experiment [4] the target is T3, His-tagged Rrp42 of S. solfataricus (S. solfataricus, UniProt Q9UXC0 1-275).
T3 sequence (looked up): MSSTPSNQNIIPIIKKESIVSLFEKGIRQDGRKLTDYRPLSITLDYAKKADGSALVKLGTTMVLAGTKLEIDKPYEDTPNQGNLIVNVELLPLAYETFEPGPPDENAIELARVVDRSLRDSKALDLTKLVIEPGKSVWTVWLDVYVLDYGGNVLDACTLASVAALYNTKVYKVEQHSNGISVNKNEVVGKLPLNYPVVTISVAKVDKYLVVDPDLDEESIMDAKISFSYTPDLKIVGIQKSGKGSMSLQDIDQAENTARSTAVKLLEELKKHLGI
Briefly: SEC. On the technique in general: Size exclusion chromatography separates by hydrodynamic size, large species first.

B1: His-tagged DnaG of S. solfataricus (natural protein, UniProt P95980 1-406, looked up)
chain: MSFQMKYDIRLRFEVEGIVEKTDVIGAIFGQTENLFGDEFDLRELQDKGRLGRIIVEVKTKGGKSEGEIIIPSNLDRIETALIAAMVESVDKVGPYNSKFELIEIEDIRAEKLKKIIERAKGILSSWSKEKSLDIKEVINEISSAVKVGEITEYGPERLPAGPDVDKDPNLIIVEGRADVINLLRYGYKNVIAVEGATSRIPETLINLSKMKKTVIAFLDGDHGGDLILKELLSNNVKIDFVARAPIGREVEELTGKEIAKALSNMMPLTQYLKKVQEAEQAIAKNVIAKEEKPIQSETTQQVVQITLPQNILEEIKKLPGTLEGVLYDNNWNLIEKVQVRDIIPKLEAYEDNKVAYIIFDGVITQRLLDLASQKNIKMIIGARIGGINKRPQNVDILTFTDIISS
Regarding B1, in experiment [1], the binding result is reported as “binds”.

B2: His-tagged Csl4 of S. solfataricus (natural protein, UniProt Q980J9 1-189, looked up)
chain: MRTQGELTLPGEELAVIEEFMTGDGTYEQNGIVRAAVVGKIFYDMLNRKSNVLGFKKIIFQHLKKAKYVIGIVNSIKEDSALVSIVGIEERGLASPISAYLHISQISNKKINNVTDAIKIGDVIKAKLLSYTFPLALTIKMKDLGVIYARCSRCGYLLIKQDENNLKCQRCGNIEQRKIGSYMVKKGGN
Take B2: the binding result in experiment [2] is on record as “binds”.

B3: Strep-tagged Csl4 of S. solfataricus (natural protein, UniProt Q980J9 1-189, looked up)
chain: MRTQGELTLPGEELAVIEEFMTGDGTYEQNGIVRAAVVGKIFYDMLNRKSNVLGFKKIIFQHLKKAKYVIGIVNSIKEDSALVSIVGIEERGLASPISAYLHISQISNKKINNVTDAIKIGDVIKAKLLSYTFPLALTIKMKDLGVIYARCSRCGYLLIKQDENNLKCQRCGNIEQRKIGSYMVKKGGN
For the molecule B3, in experiment [3], the binding result is “binds”.

B4: His-tagged Rrp41 of S. solfataricus (natural protein, UniProt Q9UXC2 1-248, looked up)
chain: MREMLQVERPKLILDDGKRTDGRKPDELRSIKIELGVLKNADGSAIFEMGNTKAIAAVYGPKEMHPRHLSLPDRAVLRVRYHMTPFSTDERKNPAPSRREIELSKVIREALESAVLVELFPRTAIDVFTEILQADAGSRLVSLMAASLALADAGIPMRDLIAGVAVGKADGVIILDLNETEDMWGEADMPIAMMPSLNQVTLFQLNGSMTPDEFRQAFDLAVKGINIIYNLEREALKSKYVEFKEEGV
Take B4: the binding result in experiment [4] was “binds”.

As to B5, the binding result in experiment [2] was “binds”.

These data come from publication PMC3672285 (RNA Biology, 2013).
